Test results published in patent publication US20250206839A1, “METHODS, COMPOSITIONS AND USES FOR SEMA7A MONOCLONAL ANTIBODIES” (THE REGENTS OF THE UNIVERSITY OF COLORADO, A BODY CORPORATE, priority 2022, published 2025).

What was measured:
MCF7 cells = experiment: Cell viability, crystal violet, 48 h; type: cell-based, human; conditions: MCF7, 500 nM SmAbH1 vs 8 nM Fulvestrant
Experimental: For proliferation assays, cells were plated at 2000 cells per well of a 96-well dish. Four pictures of different regions in each well were taken every four hours for 48 h using an IncuCyte ZOOM (Essen BioScience, Ann Arbor, MI, USA). Percent confluence was determined using the IncuCyte ZOOM software (Essen BioScience). 66cl4 Sema7A DDK cells were plated in a 96-well plate in triplicate at 1,500 cells/well. They sat down over 24 hours and then were treated with 1000 nM IgG control, 10 nM SmAbH1, 100 nM SmAbH1, 200 nM SmAbH1, 500 nM SmAbH1, or 1000 nM SmAbH1. The plate was promptly transferred to the IncuCyte where photos were taken and analyzed every 4 hours for 7 days. For additional treatment studies in MCF7, TC11 and SSM2 cells ([…]) were plated in a 24-well plate in complete media and allowed to sit down over 24 hours. At 24 hours after plating, cells were treated with 500 nM IgG control, 500 nM SmAbH1, 8 nM Fulvestrant or the combination. The plate was incubated at 37 C for 48 hours, then fixed with 10% NBF and stained with crystal violet.

purified SEMA7A = target: T1, purified SEMA7A (Homo sapiens, UniProt O75326); experiment: ELISA binding to purified SEMA7A; conditions: serial dilution
T1 construct: Fc; made in house; host or cells: cells stably transfected with SEMA7A-Fc plasmid (human breast cancer cells); purified from medium
T1 sequence (O75326 45-648 limits assumed): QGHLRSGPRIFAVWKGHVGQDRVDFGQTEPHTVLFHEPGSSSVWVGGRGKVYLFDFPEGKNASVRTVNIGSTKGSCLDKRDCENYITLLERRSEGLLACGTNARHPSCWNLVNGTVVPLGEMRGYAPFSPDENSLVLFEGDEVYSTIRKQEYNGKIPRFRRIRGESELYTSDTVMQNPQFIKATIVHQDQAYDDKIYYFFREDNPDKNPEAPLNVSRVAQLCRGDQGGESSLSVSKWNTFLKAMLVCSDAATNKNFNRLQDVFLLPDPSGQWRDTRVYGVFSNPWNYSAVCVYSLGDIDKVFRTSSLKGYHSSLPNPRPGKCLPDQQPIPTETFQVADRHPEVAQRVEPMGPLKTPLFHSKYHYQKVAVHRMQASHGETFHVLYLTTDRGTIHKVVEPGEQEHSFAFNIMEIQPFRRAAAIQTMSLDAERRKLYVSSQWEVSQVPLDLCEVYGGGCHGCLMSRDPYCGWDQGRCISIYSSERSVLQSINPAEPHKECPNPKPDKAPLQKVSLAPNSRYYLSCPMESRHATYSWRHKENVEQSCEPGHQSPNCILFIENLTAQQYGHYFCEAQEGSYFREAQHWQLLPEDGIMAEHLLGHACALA
Experimental: The MultiSorp ELISA 96 well ELISA plate (Thermo Scientific) was coated with 100 μl per well of 50 μg/ml of purified SEMA7A in Coating Buffer A (Thermo Scientific CB07100) and allowed to attach overnight with gentle rocking at 4 degrees. For the peptide competition, half of the antibody was incubated in an Eppendorf tube overnight at a ratio of 1:10 with the SEMA7A peptide on a rotator at 4 degrees. The plate was washed with 200 μl per well of 1× wash buffer (Thermo Scientific WB01) and blocked with 200 μl 1× assay buffer (Thermo Scientific DS98200) for 2 hours and room temp with gentle rocking. 1× assay buffer was removed and a 200 μl serial dilution of SMEA7A mAb in 1× assay buffer was made from columns 1 through 9, with column 10-12 getting 1× assay buffer only. The plate was incubated overnight with gentle rocking at 4 degrees. The plate was washed twice with 200 μl of 1× wash buffer. 100 μl of 200 ng/ml Goat Anti-Mouse IgG HRP (Abcam 97040) in 1× assay buffer was added to columns 1-11, with column 12 getting 1× assay buffer only. The plate was incubated for 2 hours with gentle rocking at room temp. The plate was washed four times with 200 μl 1× wash buffer. 150 μl SuperSignal Femto for ELISA (Thermo Scientific) was mixed 1:1 added to each well and mixed for 1 min and then left to rock at room temperature for 30 minutes. The absorbance was read at 425 nm on a microplate reader.

SEMA7A isoforms = experiment: Western blot recognition of SEMA7A isoforms; type: binding

B1: SmAbH1: mouse monoclonal antibody against SEMA7A generated using the 10-mer immunizing peptide … (SEQ ID NO: 2) (antibody, V domains shown)
VH: QVKLQESGTVLARPGASVKMSCKASVYSFTSYWMHWVKQRPGQGLEWIGAIYPGNSDTSYNQKFKGKAKLTAVTSASTAYMELSSLTNEDSAVYYCTRGGAPTMITAYYAMDYWGQGTSVTVSS
VL: DIQMTQTTSSLSASLGDRVTISCRASQDISNYLNWYQQKPDGTVKLLIYYTSRLHSGVPSRFSGSGSGTDYSLTISNLEQEDIATYFCQQGNTLPWTFGGGTKLEIKR
- cell viability compared to fulvestrant (MCF7 cells): more significantly reduced
- binding to purified SEMA7A (purified SEMA7A): bound to purified SEMA7A in a dose dependent manner
- recognition of SEMA7A isoforms (SEMA7A isoforms): recognition of all three isoforms of SEMATA
